Assay results taken from patent US20150073033A1 (University of Texas, published 2015).

B5: FLAG-tagged WT β-catenin (other, UniProt P35222 1-781, looked up)
chain: MATQADLMELDMAMEPDRKAAVSHWQQQSYLDSGIHSGATTTAPSLSGKGNPEEEDVDTSQVLYEWEQGFSQSFTQEQVADIDGQYAMTRAQRVRAAMFPETLDEGMQIPSTQFDAAHPTNVQRLAEPSQMLKHAVVNLINYQDDAELATRAIPELTKLLNDEDQVVVNKAAVMVHQLSKKEASRHAIMRSPQMVSAIVRTMQNTNDVETARCTAGTLHNLSHHREGLLAIFKSGGIPALVKMLGSPVDSVLFYAITTLHNLLLHQEGAKMAVRLAGGLQKMVALLNKTNVKFLAITTDCLQILAYGNQESKLIILASGGPQALVNIMRTYTYEKLLWTTSRVLKVLSVCSSNKPAIVEAGGMQALGLHLTDPSQRLVQNCLWTLRNLSDAATKQEGMEGLLGTLVQLLGSDDINVVTCAAGILSNLTCNNYKNKMMVCQVGGIEALVRTVLRAGDREDITEPAICALRHLTSRHQEAEMAQNAVRLHYGLPVVVKLLHPPSHWPLIKATVGLIRNLALCPANHAPLREQGAIPRLVQLLVRAHQDTQRRTSMGGTQQQFVEGVRMEEIVEGCTGALHILARDVHNRIVIRGLNTIPLFVQLLYSPIENIQRVAAGVLCELAQDKEAAEAIEAEGATAPLTELLHSRNEGVATYAAAVLFRMSEDKPQDYKKRLSVELTSSLFRTEPMAWNETADLGLDIGAQGEPLGYRQDDPSYRSFHSGGYGQDALGMDPMMEHEMGGHHPGADYPVDGLPDLGHAQDLMDGLPPGDSNQLAWFDTDL
notes: Transiently expressed in U87/EGFR or A431 cells; also called FLAG-β-catenin; not shown: FLAG tag
B7: FLAG-β-catenin Y333F (other, UniProt P35222 1-781, looked up)
chain: MATQADLMELDMAMEPDRKAAVSHWQQQSYLDSGIHSGATTTAPSLSGKGNPEEEDVDTSQVLYEWEQGFSQSFTQEQVADIDGQYAMTRAQRVRAAMFPETLDEGMQIPSTQFDAAHPTNVQRLAEPSQMLKHAVVNLINYQDDAELATRAIPELTKLLNDEDQVVVNKAAVMVHQLSKKEASRHAIMRSPQMVSAIVRTMQNTNDVETARCTAGTLHNLSHHREGLLAIFKSGGIPALVKMLGSPVDSVLFYAITTLHNLLLHQEGAKMAVRLAGGLQKMVALLNKTNVKFLAITTDCLQILAYGNQESKLIILASGGPQALVNIMRTYTFEKLLWTTSRVLKVLSVCSSNKPAIVEAGGMQALGLHLTDPSQRLVQNCLWTLRNLSDAATKQEGMEGLLGTLVQLLGSDDINVVTCAAGILSNLTCNNYKNKMMVCQVGGIEALVRTVLRAGDREDITEPAICALRHLTSRHQEAEMAQNAVRLHYGLPVVVKLLHPPSHWPLIKATVGLIRNLALCPANHAPLREQGAIPRLVQLLVRAHQDTQRRTSMGGTQQQFVEGVRMEEIVEGCTGALHILARDVHNRIVIRGLNTIPLFVQLLYSPIENIQRVAAGVLCELAQDKEAAEAIEAEGATAPLTELLHSRNEGVATYAAAVLFRMSEDKPQDYKKRLSVELTSSLFRTEPMAWNETADLGLDIGAQGEPLGYRQDDPSYRSFHSGGYGQDALGMDPMMEHEMGGHHPGADYPVDGLPDLGHAQDLMDGLPPGDSNQLAWFDTDL
notes: Transiently expressed in U87/EGFR or A431 cells; not shown: FLAG tag
B8: endogenous β-catenin (other, human, UniProt P35222 2-781, looked up)
chain: ATQADLMELDMAMEPDRKAAVSHWQQQSYLDSGIHSGATTTAPSLSGKGNPEEEDVDTSQVLYEWEQGFSQSFTQEQVADIDGQYAMTRAQRVRAAMFPETLDEGMQIPSTQFDAAHPTNVQRLAEPSQMLKHAVVNLINYQDDAELATRAIPELTKLLNDEDQVVVNKAAVMVHQLSKKEASRHAIMRSPQMVSAIVRTMQNTNDVETARCTAGTLHNLSHHREGLLAIFKSGGIPALVKMLGSPVDSVLFYAITTLHNLLLHQEGAKMAVRLAGGLQKMVALLNKTNVKFLAITTDCLQILAYGNQESKLIILASGGPQALVNIMRTYTYEKLLWTTSRVLKVLSVCSSNKPAIVEAGGMQALGLHLTDPSQRLVQNCLWTLRNLSDAATKQEGMEGLLGTLVQLLGSDDINVVTCAAGILSNLTCNNYKNKMMVCQVGGIEALVRTVLRAGDREDITEPAICALRHLTSRHQEAEMAQNAVRLHYGLPVVVKLLHPPSHWPLIKATVGLIRNLALCPANHAPLREQGAIPRLVQLLVRAHQDTQRRTSMGGTQQQFVEGVRMEEIVEGCTGALHILARDVHNRIVIRGLNTIPLFVQLLYSPIENIQRVAAGVLCELAQDKEAAEAIEAEGATAPLTELLHSRNEGVATYAAAVLFRMSEDKPQDYKKRLSVELTSSLFRTEPMAWNETADLGLDIGAQGEPLGYRQDDPSYRSFHSGGYGQDALGMDPMMEHEMGGHHPGADYPVDGLPDLGHAQDLMDGLPPGDSNQLAWFDTDL
notes: In EGF-treated cells it is tyrosine-phosphorylated (Y333) in the nucleus

Legend:
[1] = biological target: B8; assay: co-IP, EGF-treated U87/EGFR cells
[2] = biological target: T1, purified GST-importin α5 (human, UniProt P52294 1-538, limits assumed); assay: GST pull-down from lysates of EGF-treated U87/EGFR cells
T1 construct: Expressed in bacteria and purified; not shown: GST

[3] = biological target: AXIN2 (endogenous, A431 cells) (UniProt Q9Y2T1 1-843); assay: co-IP, A431 cells
[4] = biological target: APC (endogenous, A431 cells) (UniProt P25054 2-2843, limits assumed); assay: co-IP, A431 cells
[5] = biological target: B5; assay: co-IP, A431 cells
[6] = biological target: B7; assay: co-IP, A431 cells
[7] = biological target: endogenous c-Src (human, UniProt P12931 2-536); assay: co-IP from nuclear fractions of U87/EGFR cells

Chain of AXIN2 (endogenous, A431 cells) (Q9Y2T1 whole entry): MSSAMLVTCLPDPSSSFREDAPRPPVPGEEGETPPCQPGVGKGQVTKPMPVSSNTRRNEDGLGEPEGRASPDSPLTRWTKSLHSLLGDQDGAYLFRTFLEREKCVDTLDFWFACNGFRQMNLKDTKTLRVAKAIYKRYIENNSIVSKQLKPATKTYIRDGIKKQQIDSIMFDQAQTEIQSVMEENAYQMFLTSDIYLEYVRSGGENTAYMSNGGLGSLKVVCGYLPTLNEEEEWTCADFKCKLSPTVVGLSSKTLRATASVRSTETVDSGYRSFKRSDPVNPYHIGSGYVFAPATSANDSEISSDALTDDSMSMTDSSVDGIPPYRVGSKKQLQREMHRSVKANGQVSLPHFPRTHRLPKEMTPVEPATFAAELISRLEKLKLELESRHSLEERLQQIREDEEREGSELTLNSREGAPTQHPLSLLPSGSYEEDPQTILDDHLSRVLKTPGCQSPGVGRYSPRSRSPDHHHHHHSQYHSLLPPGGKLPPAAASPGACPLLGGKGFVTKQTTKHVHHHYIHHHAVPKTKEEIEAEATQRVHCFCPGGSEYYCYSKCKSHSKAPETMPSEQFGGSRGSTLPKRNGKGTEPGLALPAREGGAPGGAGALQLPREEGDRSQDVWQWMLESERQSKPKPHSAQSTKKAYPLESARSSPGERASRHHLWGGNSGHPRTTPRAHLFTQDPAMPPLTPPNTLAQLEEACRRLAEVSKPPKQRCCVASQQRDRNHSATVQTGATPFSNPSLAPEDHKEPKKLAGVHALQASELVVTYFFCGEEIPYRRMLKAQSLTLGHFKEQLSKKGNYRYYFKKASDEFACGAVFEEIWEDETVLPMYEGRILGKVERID
Chain of APC (endogenous, A431 cells) (P25054 2-2843 limits assumed): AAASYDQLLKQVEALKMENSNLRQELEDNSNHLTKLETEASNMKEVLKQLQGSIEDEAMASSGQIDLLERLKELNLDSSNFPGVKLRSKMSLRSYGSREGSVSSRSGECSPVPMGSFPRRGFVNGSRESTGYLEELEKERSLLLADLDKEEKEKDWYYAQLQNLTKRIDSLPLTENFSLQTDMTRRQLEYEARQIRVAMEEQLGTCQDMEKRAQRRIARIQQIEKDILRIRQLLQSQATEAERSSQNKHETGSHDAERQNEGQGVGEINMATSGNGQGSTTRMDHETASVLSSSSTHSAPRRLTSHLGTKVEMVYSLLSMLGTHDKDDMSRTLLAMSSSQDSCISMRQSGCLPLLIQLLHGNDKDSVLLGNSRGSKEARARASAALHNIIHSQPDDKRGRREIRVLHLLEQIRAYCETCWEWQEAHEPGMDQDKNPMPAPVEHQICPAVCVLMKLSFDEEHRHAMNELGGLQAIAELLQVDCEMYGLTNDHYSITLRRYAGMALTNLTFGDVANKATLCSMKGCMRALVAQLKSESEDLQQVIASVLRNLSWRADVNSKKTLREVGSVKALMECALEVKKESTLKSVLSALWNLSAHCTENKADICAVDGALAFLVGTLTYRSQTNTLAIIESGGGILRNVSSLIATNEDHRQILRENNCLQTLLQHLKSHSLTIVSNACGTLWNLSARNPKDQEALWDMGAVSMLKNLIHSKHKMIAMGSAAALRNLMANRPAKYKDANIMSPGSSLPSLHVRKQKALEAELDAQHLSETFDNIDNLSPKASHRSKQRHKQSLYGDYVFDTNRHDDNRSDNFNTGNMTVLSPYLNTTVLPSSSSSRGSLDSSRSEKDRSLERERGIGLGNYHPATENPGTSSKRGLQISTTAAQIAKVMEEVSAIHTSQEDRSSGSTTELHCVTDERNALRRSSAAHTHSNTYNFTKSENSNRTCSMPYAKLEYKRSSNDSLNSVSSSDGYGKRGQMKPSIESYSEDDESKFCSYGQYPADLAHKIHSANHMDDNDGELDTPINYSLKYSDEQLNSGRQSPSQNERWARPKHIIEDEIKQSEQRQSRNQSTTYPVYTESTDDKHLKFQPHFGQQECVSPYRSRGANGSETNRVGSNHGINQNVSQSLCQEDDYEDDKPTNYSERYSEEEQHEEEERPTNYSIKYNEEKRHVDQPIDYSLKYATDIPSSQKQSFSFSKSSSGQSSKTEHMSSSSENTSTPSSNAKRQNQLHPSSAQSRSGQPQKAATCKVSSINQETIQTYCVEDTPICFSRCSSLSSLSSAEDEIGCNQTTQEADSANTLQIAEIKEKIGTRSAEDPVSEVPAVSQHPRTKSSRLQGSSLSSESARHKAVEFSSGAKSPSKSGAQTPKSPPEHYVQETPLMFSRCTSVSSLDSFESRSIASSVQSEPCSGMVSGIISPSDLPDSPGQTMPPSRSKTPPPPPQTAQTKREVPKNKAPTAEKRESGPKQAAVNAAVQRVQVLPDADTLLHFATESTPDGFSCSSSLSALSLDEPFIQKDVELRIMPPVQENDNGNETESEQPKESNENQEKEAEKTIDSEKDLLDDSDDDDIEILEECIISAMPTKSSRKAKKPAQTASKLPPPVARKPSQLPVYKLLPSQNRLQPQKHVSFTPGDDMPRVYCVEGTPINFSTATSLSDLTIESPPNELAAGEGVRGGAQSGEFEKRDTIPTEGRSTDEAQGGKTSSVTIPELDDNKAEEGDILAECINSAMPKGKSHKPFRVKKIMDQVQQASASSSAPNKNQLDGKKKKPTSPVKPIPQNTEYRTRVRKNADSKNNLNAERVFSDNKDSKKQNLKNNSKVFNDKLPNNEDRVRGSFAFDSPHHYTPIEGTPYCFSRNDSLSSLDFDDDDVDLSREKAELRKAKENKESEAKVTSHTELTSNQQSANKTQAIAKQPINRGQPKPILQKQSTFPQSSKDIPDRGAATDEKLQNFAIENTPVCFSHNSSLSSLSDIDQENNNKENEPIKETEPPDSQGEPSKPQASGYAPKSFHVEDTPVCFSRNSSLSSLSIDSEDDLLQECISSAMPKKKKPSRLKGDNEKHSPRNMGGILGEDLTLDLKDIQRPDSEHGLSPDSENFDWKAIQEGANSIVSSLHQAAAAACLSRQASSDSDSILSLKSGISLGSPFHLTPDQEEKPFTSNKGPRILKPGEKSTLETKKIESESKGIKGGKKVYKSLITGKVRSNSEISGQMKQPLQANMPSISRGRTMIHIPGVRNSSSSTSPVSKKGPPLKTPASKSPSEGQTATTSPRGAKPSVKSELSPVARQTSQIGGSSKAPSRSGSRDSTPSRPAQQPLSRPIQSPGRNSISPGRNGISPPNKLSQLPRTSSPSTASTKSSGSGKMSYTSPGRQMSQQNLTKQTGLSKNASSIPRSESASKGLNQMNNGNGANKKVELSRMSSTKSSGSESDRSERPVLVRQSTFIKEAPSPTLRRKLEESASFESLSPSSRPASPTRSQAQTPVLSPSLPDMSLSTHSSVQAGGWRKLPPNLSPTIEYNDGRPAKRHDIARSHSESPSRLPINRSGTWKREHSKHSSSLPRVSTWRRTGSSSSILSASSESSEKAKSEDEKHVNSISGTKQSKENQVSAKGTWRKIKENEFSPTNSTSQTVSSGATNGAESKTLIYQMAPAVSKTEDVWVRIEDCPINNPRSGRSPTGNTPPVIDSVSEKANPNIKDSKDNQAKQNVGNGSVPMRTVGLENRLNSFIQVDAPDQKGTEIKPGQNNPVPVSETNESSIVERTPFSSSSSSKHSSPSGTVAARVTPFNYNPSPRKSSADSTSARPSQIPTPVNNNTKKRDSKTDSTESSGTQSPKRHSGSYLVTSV
T1 sequence (P52294 whole entry): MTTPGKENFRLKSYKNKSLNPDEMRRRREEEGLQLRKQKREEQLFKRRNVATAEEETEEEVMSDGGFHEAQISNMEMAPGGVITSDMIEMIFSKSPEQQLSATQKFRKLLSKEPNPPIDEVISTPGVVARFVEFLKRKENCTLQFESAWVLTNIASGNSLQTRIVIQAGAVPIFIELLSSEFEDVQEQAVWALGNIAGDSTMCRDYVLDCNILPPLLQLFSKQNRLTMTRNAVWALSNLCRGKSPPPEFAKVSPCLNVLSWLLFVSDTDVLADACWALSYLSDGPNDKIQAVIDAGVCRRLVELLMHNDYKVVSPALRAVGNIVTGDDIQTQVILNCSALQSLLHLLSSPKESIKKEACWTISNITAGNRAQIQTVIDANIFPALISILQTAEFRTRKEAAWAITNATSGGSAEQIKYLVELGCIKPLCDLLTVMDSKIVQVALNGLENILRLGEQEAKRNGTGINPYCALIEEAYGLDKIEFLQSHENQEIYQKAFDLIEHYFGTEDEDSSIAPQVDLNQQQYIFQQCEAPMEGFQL

B1: FLAG-tagged wild-type PKM2 (enzyme)
chain: not shown
notes: Expressed in U87/EGFR cells; also called FLAG-PKM2; WT FLAG-PKM2
binding result [1]: binds

B2: FLAG-PKM2 R399/400A (enzyme)
chain: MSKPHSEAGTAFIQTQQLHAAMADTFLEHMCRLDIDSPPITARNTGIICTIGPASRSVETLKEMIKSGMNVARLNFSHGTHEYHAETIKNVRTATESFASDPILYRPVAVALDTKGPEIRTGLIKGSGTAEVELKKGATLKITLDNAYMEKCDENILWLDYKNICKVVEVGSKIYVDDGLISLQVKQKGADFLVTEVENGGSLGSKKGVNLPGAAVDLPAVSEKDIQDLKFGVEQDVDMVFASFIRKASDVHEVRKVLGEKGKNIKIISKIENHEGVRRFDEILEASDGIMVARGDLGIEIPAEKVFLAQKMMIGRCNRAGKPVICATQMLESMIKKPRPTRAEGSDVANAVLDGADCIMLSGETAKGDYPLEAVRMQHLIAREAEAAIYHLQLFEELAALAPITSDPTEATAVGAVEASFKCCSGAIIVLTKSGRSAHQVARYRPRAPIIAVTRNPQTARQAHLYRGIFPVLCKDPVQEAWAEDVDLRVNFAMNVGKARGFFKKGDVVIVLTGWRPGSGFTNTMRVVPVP
notes: Expressed in U87/EGFR cells
binding result [2]: no binding

B3: FLAG-PKM2 K433E (enzyme)
chain: not shown
notes: Expressed in U87/EGFR cells; also called PKM2 K433E mutant
binding result [1]: no binding

B4: FLAG-PKM2 K367M (kinase-dead) (enzyme)
chain: not shown
notes: Expressed in U87/EGFR cells
binding result [1]: binds

B5
binding result [3]: binds | binding result [4]: binds

B6: E-cadherin (endogenous, A431 cells) (other, UniProt P12830 155-882, looked up)
chain: DWVIPPISCPENEKGPFPKNLVQIKSNKDKEGKVFYSITGQGADTPPVGVFIIERETGWLKVTEPLDRERIATYTLFSHAVSSNGNAVEDPMEILITVTDQNDNKPEFTQEVFKGSVMEGALPGTSVMEVTATDADDDVNTYNAAIAYTILSQDPELPDKNMFTINRNTGVISVVTTGLDRESFPTYTLVVQAADLQGEGLSTTATAVITVTDTNDNPPIFNPTTYKGQVPENEANVVITTLKVTDADAPNTPAWEAVYTILNDDGGQFVVTTNPVNNDGILKTAKGLDFEAKQQYILHVAVTNVVPFEVSLTTSTATVTVDVLDVNEAPIFVPPEKRVEVSEDFGVGQEITSYTAQEPDTFMEQKITYRIWRDTANWLEINPDTGAISTRAELDREDFEHVKNSTYTALIIATDNGSPVATGTGTLLLILSDVNDNAPIPEPRTIFFCERNPKPQVINIIDADLPPNTSPFTAELTHGASANWTIQYNDPTQESIILKPKMALEVGDYKINLKLMDNQNKDQVTTLEVSVCDCEGAAGVCRKAQPVEAGLQIPAILGILGGILALLILILLLLLFLRRRAVVKEPLLPPEDDTRDNVYYYDEEGGGEEDQDFDLSQLHRGLDARPEVTRNDVAPTLMSVPRYLPRPANPDEIGNFIDENLKAADTDPTAPPYDSLLVFDYEGSGSEAASLSSLNSSESDKDQDYDYLNEWGNRFKKLADMYGGGEDD
binding result [5]: binds | binding result [6]: binds

B7
binding result [3]: binds | binding result [4]: binds

B8
binding result [7]: binds
